Test results published in patent publication US9670264B2, “Water soluble G-protein coupled receptor” (The Trustees of The University of Pennsylvania, priority 2013, dated 2017).

Legend:
[1] = Secondary structure by circular dichroism (CD); type: physicochemical; details: CD 205-260 nm
Description: The CD spectra indicated predominantly helical structures with a helical secondary structure content of ˜48% (estimations based on the molar ellipticity over the range 205 to 260 nm). The comparison of the helical content with that of the native human MUR expressed in yeast system in the presence of high concentration of detergent (0.1% SDS) is presented in Table 1.

[2] = Thermostability monitored by CD (222 nm); type: physicochemical; details: 5 mM sodium phosphate, pH=7.0; for melting point: 0.01% SDS
Experimental: The secondary structure of the water-soluble variant was determined through circular dichroism (CD). Circular dichroism (CD) spectra were recorded by using CD Spectrometer (Chirascan, AppliedPhotophysics Limited, Leatherhead, United Kingdom) with a scan speed of 1 nm/s and 1 mm path length. Corresponding blanks were used for calibration for each assay and subtracted from raw data. Two data sets were recorded and averaged to increase the signal-to-noise ratio. The CDNN CD spectra deconvolution software was utilized to determine the secondary structure content of the proteins. […] Absorbance was maintained lower than 1.0 to ensure sufficient light transmission. The temperature-dependence curve was plotted using GraphPad Prism® (version 5, GraphPad Software, Inc. La Jolla).

[3] = Effects of denaturant (urea) and reducing agent (2-ME), by CD and intrinsic tryptophan fluorescence; type: physicochemical
Experimental: CD and intrinsic tryptophan fluorescence were used to probe disulfide bond formation in the water-soluble variant. […] Even in 8 M urea, the protein retains some helical structure (Table 2). Upon addition of 2-ME, both the molar ellipticity and fluorescence further decreased, becoming more pronounced at the higher concentration of the reducing agent (200 mM). Thus the presence of an intramolecular disulfide bond is corroborated in the case of wsMUR-TM.
Of particular interest are the tryptophan residues located in the partially buried transmembrane locations of the model structure (positions 194, 295, and 320). The fluorescence associated with these residues is expected to be sensitive to the local hydrophobic environment and overall folding of the protein.
The decrease of the tryptophan fluorescence under denaturing conditions and in the presence of 2-ME is consistent with the changes in CD spectra observed under similar conditions. The requirement of the reducing agent to fully denature and unfold the protein indicates the relevance of an intramolecular disulfide bond in stabilizing the receptor structure. […] However, the CD and ligand-binding studies are consistent with the adoption of the proper protein tertiary structure and by extension with the formation of the correct disulfide bond.

[4] = tested on: human μ opioid receptor expressed in HEK293 cells; assay: Binding competition assay (TR-FRET/HTRF) between native human μ opioid receptor and water-soluble variants, with a fluorescent naltrexone-derived antagonist; details: FIG. 10, as for FIG. 7
Description: FIG. 7. […] Data is used to calculate HTRF ratios, and represent the mean±standard error of mean of quadruplicates. ΔF is used for the comparison of different runs of the same assay which reflects the signal to background of the assay. ΔF=[(Ratiosample−Ratiobackgroud)/Ratiobackgroud] (%).
A recently developed methodology which uses a fluorescently labeled ligand and the native MUR was used to investigate the ligand-binding capabilities of the water-soluble receptors.

[5] = pH 7.0 + 0.1% SDS, expressed in yeast system
[6] = None (no denaturant or reducing agent; normalisation reference)

Molecule: Native MUR: native human μ receptor expressed in yeast system, in 0.1% SDS [reference compound]
- Helix content [1, 5]: 40.6%
- Others content [1, 5]: 40.5%
- Turn content [1, 5]: 18.9%

B1: wsMUR-TM: computationally designed transmembrane-only water-soluble variant of the human μ opioid receptor (protein)
chain: SMITAIKIHEEYKKVCEEGKKGNKLVMEVIVRYTKMKTATNIYIFNLAKADALAESTLPFQSVNKLMGTWPFGTILCKKVISIDYYNMFTSIFTLCTMSVDRYIAVCHPVKALDFRTPRNAKEENEKNWKLSSEIGKPVEKKATTKYRQGSIDCTLTFSHPTWYWEDKLKDEVFKKAFEEPVKKIKECYGLMILRLKSVRMLSGSKEKDRNLRRITRMVLVVVEVFIKCWTEIHKYVKEGKLVTIPETTFQTVSWHECIAKGYKNSCENPKLYEELDENFKRCFREFC
- Helix content ([1]; pH 7.0 in NaHPO4): 48.0%
- Others content ([1]; pH 7.0 in NaHPO4): 37.4%
- Turn content ([1]; pH 7.0 in NaHPO4): 14.6%
- temperature at which almost fully unfolded (almost complete loss in molar ellipticity) ([2]; 10 to 90° C.): 90 °C
- temperature at which ellipticity starts to be lost significantly ([2]; 10 to 90° C.): ~62 °C
- melting point ([2]; absence of cholesterol): 82.9 °C
- melting point ([2]; presence of cholesterol): 89.3 °C
- Fluorescence Peak Intensity (%; 300-350 nm) [3, 6]: 100.0%
- Molar Ellipticity (%; 222 nm) [3, 6]: 100.0%
- Fluorescence Peak Intensity (%; 300-350 nm) ([3]; Urea (8M)): 28.4%
- Molar Ellipticity (%; 222 nm) ([3]; Urea (8M)): 40.0%
- Fluorescence Peak Intensity (%; 300-350 nm) ([3]; Urea (8M) 2-ME (25 mM)): 23.9%
- Molar Ellipticity (%; 222 nm) ([3]; Urea (8M) 2-ME (25 mM)): 25.1%
- Fluorescence Peak Intensity (%; 300-350 nm) ([3]; Urea (8M) 2-ME (200 mM)): 4.5%
- Molar Ellipticity (%; 222 nm) ([3]; Urea (8M) 2-ME (200 mM)): 0.0%

B2: wsMUR-TM+7mut: second wsMUR recombinant protein (protein)
chain: SMITAIKILEEYKKVCEEGRKGNKLVMEVIVRYTKMKTATNIYIFNLAKADALAESTLPFQSVNKLMGTWPFGTILCKKVISIDYYNMFTSIFTLCTMSVDRYIAVCHPVKALDFRTPRNAKEHNEKNWKLSSEIGKPVEKRATTKYRQGSIDCTLTFSHPTWYWEDKLKDTVFKKAFEEPVKVIKECYGLMILRLKSVRMLSGSKEKDRNLRRITRMVLVVVEVFIKCWTEIHKYVKEGKL
- binding activity (interaction with naltrexone) [4]: binding activity was also observed
